B1: His-tagged recombinant OsCYN (enzyme, Oryza sativa, UniProt Q9FWK4 1-168, looked up)
chain: MEGGGGERAAGVVRRLMAAKAESRKSFSEIGEEAGLTNVYVAQLLRRQAQLKPETAPALRAAVPGLTDDLVALMMEPPFRSYHPDIVHEPAIYRLNEAVMHFGESIKEIINEEFGDGIMSAIDFYCSVDKVQGADGKDRVVVTFDGKYLPYSEQRSDHMMSRLTRKTS
notes: cyanase (OsCYN) of Oryza sativa (cv. Zhonghua 11), 168 aa, NP_001064827; cDNA amplified with primers from the start codon to the stop codon, cloned into pET15b; pET15b construct (BamH I and Xho I sites); calculated monomer with tag 22.0 kDa; also called His:OsCYN; source: E. coli BL21 (DE3), purified (Ni2+ chelating column, Superdex 200); copies: 10
B2: His-tagged recombinant AtCYN (enzyme, Arabidopsis thaliana, UniProt O22683 1-168, looked up)
chain: MEAAKKQSVTNQLLAVKSASGKTFSQLAAETGLTNVYVAQLLRRQAQLKPDTVPKLKEALPALTDELIGDMMSPPWRSYDPNLIQEPTIYRLNEAVMHFGESIKEIINEDFGDGIMSAIDFYCSVDKIKGVDGNNRVVVTLDGKYLSHSEQRTENMVSRLNLKGGTSE
notes: cyanase (AtCYN) of Arabidopsis thaliana, 168 aa, NP_188991; cDNA amplified with primers from the start codon to the stop codon, cloned into pET15b; pET15b construct (BamH I and Xho I sites); calculated monomer with tag 21.9 kDa; also called His:AtCYN; source: E. coli BL21 (DE3), purified (Ni2+ chelating column, Superdex 200); copies: 10

Experiments:
[1] = biological target: the molecule itself; assay: SEC; His-tagged proteins after Ni2+ affinity chromatography on a Superdex 200 10/300 GL column; molecular weight calculated against high molecular weight standards
[2] = substrate: O=C(O)O; assay: purified protein; conditions: 5 mM KCNO, pH 7.7, 27°C
[3] = substrate: N#CO; assay: purified protein; format: biochemical, Oryza sativa; conditions: 5 mM NaHCO3, pH 7.7, 27°C
[4] = substrate: N#CO; assay: purified protein; format: biochemical, Arabidopsis thaliana; conditions: 5 mM NaHCO3, pH 7.7, 27°C

Protein | stoichiometry N [1] | Km [2] [mM] | Km [3] [mM] | Km [4] [mM]
B1 | 10 | 0.63 | 7.38 | 
B2 | 10 | 0.79 |  | 0.94

Source: article PMC3070753, “Biochemical and Structural Properties of Cyanases from Arabidopsis thaliana and Oryza sativa” (PLoS ONE, 2011)
